From paper PMC3136172, “Stabilization of a G-Quadruplex from Unfolding by Replication Protein A Using Potassium and the Porphyrin TMPyP4” come the findings set out here.

The target of one data set is RPA-CDE-core (UniProt P27694;P15927;P35244 436-616;45-171;1-121). The data set can be described thus: CD titration (G4 unfolding); 100 mM NaCl, 2 mM Mg2+; efficient unfolding, less than RPA; 25 mM Tris pH 7.5, 2 mM MgCl2, 0.5% inositol, 1 mM DTT, 100 mM NaCl or 100 mM KCl, 25 C; 1.4 uM DNA, protein:DNA ratio 0-5. To be noted: protein: recombinant; tags: N-terminal His-tag, thrombin-cleaved; copies: 1;1;1; intramolecular G4; mixed parallel/antiparallel in K+, antiparallel in Na+.
Sequence of RPA-CDE-core (P27694 436-616, chain 1 of 3): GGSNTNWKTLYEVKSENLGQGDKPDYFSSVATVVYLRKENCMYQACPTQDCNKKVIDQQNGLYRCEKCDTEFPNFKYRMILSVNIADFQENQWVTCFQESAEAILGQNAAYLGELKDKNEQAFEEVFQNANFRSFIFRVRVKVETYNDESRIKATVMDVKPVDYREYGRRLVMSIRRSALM
Sequence of RPA-CDE-core (P15927 45-171, chain 2 of 3): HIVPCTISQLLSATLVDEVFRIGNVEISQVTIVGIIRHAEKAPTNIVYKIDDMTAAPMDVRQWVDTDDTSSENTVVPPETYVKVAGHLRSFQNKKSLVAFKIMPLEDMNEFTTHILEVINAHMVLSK
Sequence of RPA-CDE-core (P35244 whole entry, chain 3 of 3): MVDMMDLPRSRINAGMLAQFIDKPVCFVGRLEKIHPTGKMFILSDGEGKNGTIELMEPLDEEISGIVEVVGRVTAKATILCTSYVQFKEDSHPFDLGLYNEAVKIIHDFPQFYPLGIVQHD

Data set [1] addresses RPA (full-length replication protein A) (human, UniProt P27694;P15927;P35244 1-616;1-270;1-121). Nature of the data set: CD titration (G4 unfolding); 100 mM NaCl, 2 mM Mg2+; complete unfolding at RPA:DNA ratio 2; 25 mM Tris pH 7.5, 2 mM MgCl2, 0.5% inositol, 1 mM DTT, 100 mM NaCl or 100 mM KCl, 25 C; 1.4 uM DNA, protein:DNA ratio 0-5. To be noted: protein: recombinant; copies: 1;1;1; intramolecular G4; mixed parallel/antiparallel in K+, antiparallel in Na+.

Sequence of RPA (full-length replication protein A) (P27694 whole entry, chain 1 of 3): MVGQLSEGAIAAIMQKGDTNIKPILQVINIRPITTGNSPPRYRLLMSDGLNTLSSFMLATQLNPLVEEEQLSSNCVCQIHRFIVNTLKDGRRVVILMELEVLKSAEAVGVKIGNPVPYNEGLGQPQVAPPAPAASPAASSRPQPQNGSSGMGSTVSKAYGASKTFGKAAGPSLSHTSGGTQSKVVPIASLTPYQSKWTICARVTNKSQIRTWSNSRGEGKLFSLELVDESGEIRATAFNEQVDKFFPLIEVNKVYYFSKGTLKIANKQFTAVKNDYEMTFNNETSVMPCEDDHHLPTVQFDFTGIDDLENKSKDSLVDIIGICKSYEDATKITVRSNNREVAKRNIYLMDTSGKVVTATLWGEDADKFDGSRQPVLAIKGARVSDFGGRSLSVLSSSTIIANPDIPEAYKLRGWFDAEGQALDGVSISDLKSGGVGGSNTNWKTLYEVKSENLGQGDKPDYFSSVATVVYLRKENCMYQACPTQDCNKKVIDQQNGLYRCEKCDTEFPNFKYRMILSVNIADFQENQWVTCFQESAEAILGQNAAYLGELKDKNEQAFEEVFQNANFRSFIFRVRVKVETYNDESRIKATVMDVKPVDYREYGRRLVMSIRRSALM
Sequence of RPA (full-length replication protein A) (P15927 whole entry, chain 2 of 3): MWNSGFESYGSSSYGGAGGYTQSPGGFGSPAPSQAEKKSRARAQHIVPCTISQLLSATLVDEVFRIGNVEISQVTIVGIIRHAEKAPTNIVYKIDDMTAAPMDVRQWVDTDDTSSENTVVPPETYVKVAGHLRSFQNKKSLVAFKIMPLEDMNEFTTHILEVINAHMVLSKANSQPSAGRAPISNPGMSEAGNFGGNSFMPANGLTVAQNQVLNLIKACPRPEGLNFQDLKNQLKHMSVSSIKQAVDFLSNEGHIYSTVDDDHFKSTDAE
Sequence of RPA (full-length replication protein A) (P35244 whole entry, chain 3 of 3): as the sequence (P35244 whole entry, chain 3 of 3) above

B1: Gq23 (structured_DNA)
DNA: TAGGGGAAGGGTTGGAGTGGGTT
For B1, the binding result (with RPA-CDE-core; in data set [1]) was “binds” each time.
